Patent publication US20090265797A1 (PIERRE FABRE MEDICAMENT, published 2009)
Each block holds one binder with its values, some of them ahead of it.

Key:
[1] = target: IGF-IR on MCF-7 or HT29 cells (human, UniProt P08069 31-1367); assay: cell-based or functional assay
[2] = target: T1, human IGF-IR (hIGF-IR) from membrane lysate of NIH 3T3 cells stably transfected with the human IGF-IR cDNA, … (human, UniProt P08069 31-1367); assay: competition of 100 pM [125I]-IGF2 binding to hIGF-IR captured by antibody 17-69 on Protein A FlashPlate
T1 construct: Whole receptor (alpha and beta subunits from one precursor) solubilised from membranes, not on cells; also called immobilized hIGF-IR; human IGF-1 receptor
Description: (§1) Two hundred μl of a 20 μg/ml antibody solution in PBS were added to each well and incubated overnight at +4° C. The buffer containing residual 17-69 not attached to protein A was removed by aspiration. Two hundred μl of the membrane lysate at 100 μg/ml were further added and incubated for 2 h at room temperature to immobilize IGF-IR. Non captured proteins were removed by aspiration. […] The plates were incubated at room temperature for 2 h, then counted on a Packard Top Count Microplate Scintillation Counter.
(§2) Concentrations of the various inhibitors required to inhibit the radioligand binding by 50% (IC₅₀) were determined graphically from the sigmoid competition curves obtained (FIGS. 1 and 2).

[3] = target: T1, human IGF-IR (hIGF-IR) from membrane …; assay: competition of 100 pM [125I]-IGF1 binding to hIGF-IR captured by antibody 17-69 on Protein A FlashPlate; displacement of [^125I]-IGF1 (not [^125I]-IGF2) from immobilized hIGF-IR
Description: as §1, §2

[4] = target: T1, human IGF-IR (hIGF-IR) from membrane …; assay: competition of 100 pM [125I]-IGF1 binding to immobilized hIGF-IR; reference: unlabeled IGF1
Description: as §1, §2

[5] = target: soluble human insulin-like growth factor-1 receptor (hIGF-IR) extra-cellular domain (ECD) (human) (UniProt P08069); assay: SPR, BIAcore T100, 25 °C; antibody captured by anti-human IgG Fc on CM5, hIGF-IR-ECD as analyte (6.25-100 nM)
[6] = target: soluble human insulin-like growth factor-1 receptor (hIGF-IR) extra-cellular domain (ECD) (human) (UniProt P08069); assay: SPR, BIAcore T100, 25 °C; antibody captured by anti-human IgG Fc on CM5, hIGF-IR-ECD as analyte; KD = kd/ka

T1 sequence (P08069 31-1367 limits assumed): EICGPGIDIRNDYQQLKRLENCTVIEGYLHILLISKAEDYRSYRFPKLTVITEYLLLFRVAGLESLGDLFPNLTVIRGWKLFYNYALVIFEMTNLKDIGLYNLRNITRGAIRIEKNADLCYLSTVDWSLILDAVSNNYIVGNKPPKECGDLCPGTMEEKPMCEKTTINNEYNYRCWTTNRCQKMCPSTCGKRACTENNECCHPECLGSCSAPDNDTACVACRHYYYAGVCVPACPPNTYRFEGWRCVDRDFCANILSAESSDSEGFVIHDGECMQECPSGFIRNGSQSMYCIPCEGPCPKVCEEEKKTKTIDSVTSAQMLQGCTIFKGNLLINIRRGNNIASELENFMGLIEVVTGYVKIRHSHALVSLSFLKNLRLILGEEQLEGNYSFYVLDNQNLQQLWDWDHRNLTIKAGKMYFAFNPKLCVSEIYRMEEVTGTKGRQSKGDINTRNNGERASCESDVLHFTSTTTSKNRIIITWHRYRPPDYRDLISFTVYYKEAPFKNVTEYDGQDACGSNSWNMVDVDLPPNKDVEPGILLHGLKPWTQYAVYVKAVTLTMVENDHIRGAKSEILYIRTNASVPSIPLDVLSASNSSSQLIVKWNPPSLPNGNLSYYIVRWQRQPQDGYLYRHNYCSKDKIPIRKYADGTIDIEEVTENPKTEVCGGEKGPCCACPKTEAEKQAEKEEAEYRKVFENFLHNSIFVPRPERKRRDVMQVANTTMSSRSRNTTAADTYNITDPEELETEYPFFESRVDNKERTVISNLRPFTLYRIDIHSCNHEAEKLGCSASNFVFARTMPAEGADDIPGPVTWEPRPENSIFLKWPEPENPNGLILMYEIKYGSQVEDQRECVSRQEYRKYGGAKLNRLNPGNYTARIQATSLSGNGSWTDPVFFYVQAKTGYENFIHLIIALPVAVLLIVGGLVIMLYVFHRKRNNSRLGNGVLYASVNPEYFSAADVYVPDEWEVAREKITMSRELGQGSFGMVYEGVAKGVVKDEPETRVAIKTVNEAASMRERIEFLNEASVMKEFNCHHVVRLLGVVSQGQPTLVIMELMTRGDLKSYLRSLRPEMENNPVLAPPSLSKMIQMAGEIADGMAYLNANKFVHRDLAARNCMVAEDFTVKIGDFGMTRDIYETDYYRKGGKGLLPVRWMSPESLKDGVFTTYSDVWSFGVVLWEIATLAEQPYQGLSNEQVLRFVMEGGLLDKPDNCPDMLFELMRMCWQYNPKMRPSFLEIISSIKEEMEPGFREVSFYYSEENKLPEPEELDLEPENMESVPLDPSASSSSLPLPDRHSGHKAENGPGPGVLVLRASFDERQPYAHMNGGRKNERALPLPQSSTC
Sequence of IGF-IR on MCF-7 or HT29 cells (P08069 31-1367): as the sequence (P08069 31-1367 limits assumed) above

IC50 of inhibition of IGF1-induced proliferation of MCF-7 cells [1]: 0.7 nM | IC50 of inhibition of IGF2-induced proliferation of MCF-7 cells [1]: 0.5 nM | IC50 [2]: ~0.1 nM | IC50 [3]: 0.021 nM | fold lower IC50 than non radiolabeled IGF1 [4]: 30 fold
B1: murine monoclonal antibody I-3466 (antibody, V domains shown)
VH: EVMLVESGGDLVKPGGSLKLSCAASGFTFNNYIMSWVRQTPEKRLEWVATISGGGSYTFYPDSVKGRFSISRDNAKNTLYLQMSSLRSEDTAMYFCTRNQLLTGMINPLTTPRAWFTYWGQGTLVTVSA
VL: DIVMSQSPSSLAVSAGEKVTMNCKSSQSLLDSRTRKNYLAWYQQKPGQSPKLLIYWASTRESGVPDRFTGSGSGTDFTLTISSVQAEDLAVYYCKQSYNLFTFGGGTKLEIK
notes: a mouse IgG1 (9G4) served as its isotype control

koff [5]: 6.29e-05 s⁻¹ | kon [5]: 184000 M⁻¹ s⁻¹ | Kd [6]: 0.342 nM
B2: Humanized I-3466 IgG1 antibody (antibody, V domains shown)
VH: EVQLVESGGDLVQPGGSLRLSCAASGFTFNNYIMSWVRQAPGKGLEWVATISGGGSYTFYPDSVKGRFTISRDNSKNTLYLQMNSLRAEDTAVYFCTRNQLLTGMINPLTTPRAWFTYWGQGTLVTVSS
VL: DIVMTQSPDSLAVSLGERATINCKSSQSLLDSRTRKNYLAWYQQKPGQPPKLLIYWASTRESGVPDRFSGSGSGTDFTLTISSLQAEDVAVYYCKQSYNLFTFGGGTKVEIK
